From US20210196796A1 (SYNTHEKINE, published 2021)
Where a chain is given by its changes, count along the chain named. Numbers in names are those of the source.

T1: orthogonal hCD122 receptor (hoRb), hCD122 with H133D and Y134F (human, UniProt P14784 27-550)
T1 sequence: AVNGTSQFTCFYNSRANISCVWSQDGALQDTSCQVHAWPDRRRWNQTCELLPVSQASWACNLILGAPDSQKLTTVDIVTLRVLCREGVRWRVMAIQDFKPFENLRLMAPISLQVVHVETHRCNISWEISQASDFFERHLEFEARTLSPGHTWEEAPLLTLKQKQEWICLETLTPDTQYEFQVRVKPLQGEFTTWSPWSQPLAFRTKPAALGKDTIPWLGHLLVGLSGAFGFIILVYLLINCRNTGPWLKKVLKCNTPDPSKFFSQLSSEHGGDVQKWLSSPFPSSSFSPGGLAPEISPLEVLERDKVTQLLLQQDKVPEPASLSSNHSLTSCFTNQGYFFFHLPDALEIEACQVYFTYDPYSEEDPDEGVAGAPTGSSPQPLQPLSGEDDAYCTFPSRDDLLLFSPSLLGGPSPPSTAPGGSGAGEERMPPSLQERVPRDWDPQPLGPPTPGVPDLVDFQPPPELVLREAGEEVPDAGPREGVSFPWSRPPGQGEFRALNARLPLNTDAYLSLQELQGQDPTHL

B1: ΔL19, SQ_LKA (ligand)
chain: APTSSSTKKTQLQLSQLLLLKAILNGINNYKNPKLTRMLTFKFYMPKKATELKHLQCLEEELKPLEEVLNLAQSKNFHLRPRDLISNINVIVLELKGSETTFMCEYADETATIVEFLNRWITFCQSIISTLT
B2: L18F, SQVLKA (ligand)
chain: APTSSSTKKTQLQLSQLFVLLKAILNGINNYKNPKLTRMLTFKFYMPKKATELKHLQCLEEELKPLEEVLNLAQSKNFHLRPRDLISNINVIVLELKGSETTFMCEYADETATIVEFLNRWITFCQSIISTLT
B3: L18K, SQVLKA (ligand)
chain: B2 chain with F18K
B4: L18Q, SQVLKA (ligand)
chain: B2 chain with F18Q
B5: L18E, SQVLKA (ligand)
chain: B2 chain with F18E
B6: T3A, SQVLKA (ligand)
chain: B2 chain with T3A, F18L
B7: L18D, SQVLKA (ligand)
chain: B2 chain with F18D
B8: T3C, SQVLKA (ligand)
chain: B2 chain with T3C, F18L
B9: L18W, SQVLKA (ligand)
chain: B2 chain with F18W
B10: L18Y, SQVLKA (ligand)
chain: B2 chain with F18Y
B11: L18S, SQVLKA (ligand)
chain: B2 chain with F18S
B12: L18V, SQVLKA (ligand)
chain: B2 chain with F18V
B13: L18I, SQVLKA (ligand)
chain: B2 chain with F18I
B14: L18T, SQVLKA (ligand)
chain: B2 chain with F18T

target: T1, orthogonal hCD122 receptor (hoRb), …; test: cell-based or functional assay
Wherever Relative Proliferation Fold Change 3F8 1:10 is given: reference of the scale not given here.
Wherever Relative Proliferation Fold Change 3F8 1:2 is given: reference of the scale not given here.
Wherever Relative Proliferation Fold Change 3F8 1:50 is given: reference of the scale not given here.
Wherever Relative Proliferation Fold Change NKL 1:10 is given: reference of the scale not given here.
Wherever Relative Proliferation Fold Change NKL 1:2 is given: reference of the scale not given here.
Wherever Relative Proliferation Fold Change NKL 1:50 is given: reference of the scale not given here.

| NKL Ortho Proliferation Signal 1:2 | NKL Ortho Proliferation Signal 1:10 | NKL Ortho Proliferation Signal 1:50 | Relative Proliferation Fold Change NKL 1:2 [fold] | Relative Proliferation Fold Change NKL 1:10 [fold] | Relative Proliferation Fold Change NKL 1:50 [fold] | Binder |
| --- | --- | --- | --- | --- | --- | --- |
| 6440 | 9120 | 8470 | 0.49 | 0.62 | 0.59 | B1 |
| 48600 | 39400 | 19400 | 3.85 | 2.52 | 1.3 | B2 |
| 22200 | 20200 | 11500 | 1.56 | 1.21 | 0.76 | B3 |
| 47500 | 41200 | 21400 | 3.93 | 2.5 | 1.41 | B4 |
| 8260 | 9060 | 8120 | 0.57 | 0.56 | 0.51 | B5 |
| 69100 | 79500 | 47000 | 3.91 | 4.22 | 2.67 | B6 |
| 6380 | 8160 | 7460 | 0.6 | 0.59 | 0.56 | B7 |
| 60600 | 70800 | 35300 | 4.54 | 4.16 | 2.06 | B8 |
| 18700 | 17000 | 10700 | 1.56 | 1.1 | 0.71 | B9 |
| 37300 | 27000 | 14800 | 3.34 | 2.09 | 1.19 | B10 |
| 27200 | 21500 | 11500 | 2.4 | 1.56 | 0.85 | B11 |
| 17800 | 14000 | 8670 | 1.36 | 0.96 | 0.62 | B12 |
| 23800 | 20500 | 11000 | 2.05 | 1.38 | 0.8 | B13 |
| 25000 | 20100 | 11300 | 2.37 | 1.49 | 0.87 | B14 |

target: T1, orthogonal hCD122 receptor (hoRb), …; test: cell-based or functional assay; remark: another data set of the same source

| 3F8 Ortho Proliferation Signal 1:2 [cts/min] | 3F8 Ortho Proliferation Signal 1:10 [cts/min] | 3F8 Ortho Proliferation Signal 1:50 [cts/min] | Relative Proliferation Fold Change 3F8 1:2 [fold] | Relative Proliferation Fold Change 3F8 1:10 [fold] | Relative Proliferation Fold Change 3F8 1:50 [fold] | Binder |
| --- | --- | --- | --- | --- | --- | --- |
| 736 | 1070 | 1540 | 1.11 | 1.27 | 1.98 | B1 |
| 49800 | 40800 | 30000 | 54.8 | 16.8 | 11.8 | B2 |
| 45400 | 42800 | 20400 | 162 | 49.6 | 14.6 | B3 |
| 40800 | 57200 | 44700 | 111 | 80.8 | 47.2 | B4 |
| 6090 | 2350 | 1980 | 9.99 | 0.93 | 0.77 | B5 |
| 41400 | 39300 | 19500 | 17.1 | 11 | 8.68 | B6 |
| 44000 | 49600 | 25200 | 92.5 | 81.3 | 28.4 | B7 |
| 33100 | 33700 | 14600 | 34.9 | 12.8 | 12 | B8 |
| 36800 | 32800 | 9570 | 138 | 43.1 | 12.7 | B9 |
| 47600 | 51400 | 28200 | 214 | 101 | 64 | B10 |
| 43300 | 48600 | 23600 | 185 | 89 | 41.9 | B11 |
| 36500 | 29500 | 9920 | 139 | 19.2 | 12 | B12 |
| 36900 | 37300 | 19400 | 81.2 | 29.8 | 11 | B13 |
| 61100 | 51800 | 25700 | 2.05 | 6.27 | 13.8 | B14 |
